Assay [1] concerns the target T1, N-terminal NanoLuc-tagged EGFR (NLuc-EGFR) (human, UniProt P00533 25-1210).
T1 construct: ORF from the Kazusa DNA Research Institute; NanoLuc fused to its N-terminus via a Gly-Ser-Ser-Gly linker; signal peptide of IL-6 before NanoLuc; Vector pNKF1-secN CMV; The abstract says HEK293T, the methods HEK293; also called full-length N-terminal nanoluciferase-EGFR; NanoLuc-EGFR; source: HEK293 cells, stably transfected, on living cells; not shown: NanoLuc, N-terminal, kept
Particulars: one partner purified.

In assay [2] the target is T1, N-terminal NanoLuc-tagged EGFR …. Description: FRET or BRET; NanoBRET displacement of 3 nM EGF-AF488 by unlabelled EGFR ligands on living HEK293 cells expressing NLuc-EGFR; added simultaneously, 30 min at 37 °C; HBSS with 0.2% BSA; Ki from IC50 by Cheng-Prusoff; pKi is the negative log10. Conditions: one partner purified. In general terms: BRET reads energy transfer from a luciferase to a nearby fluorophore.

Assay [3] shares this target. Description: cell-based or functional assay.

B1: human recombinant betacellulin (ligand, UniProt P35070 32-111, looked up)
chain: DGNSTRSPETNGLLCGDPEENCAATTTQSKRKGHFSRCPKQYKHYCIKGRCRFVVAEQTPSCVCDEGYIGARCERVDLFY
notes: Betacellulin, human, recombinant; also called BTC; source: bought: R&D Systems (261-CE-010)
One may read the pIC50 as the negative decadic logarithm of the IC50, by convention in mol/L. What is called pKi is the negative decadic logarithm of the Ki, by convention in mol/L. A low value points to a high Ki. B1: the negative logarithm of the IC50 (pIC50) in assay [1] was 9.02. This molecule showed a negative logarithm of the Ki (pKi) in assay [2] of 8.45. The “pEC50 for enhancement of the specific binding of 12.5 nM Q86c-HL488 (conformational sensor nanobody) to NLuc-EGFR, NanoBRET on HEK293 cells” value in assay [3] was 9.17.

B2: heparin binding EGF-like growth factor (ligand, UniProt Q99075 63-148, looked up)
chain: DLQEADLDLLRVTLSSKPQALATPNKEEHGKRKKKGKGLGKKRDPCLRKYKDFCIHGECKYVKELRAPSCICHPGYHGERCHGLSL
notes: the other ligands are human recombinant proteins from R&D Systems; also called HB-EGF; Hb-EGF
The molecule B2 came in with a negative-log IC50 (pIC50) in assay [1] of 8.8. In assay [2], this molecule returned a pKi of 8.43. The “pEC50 for enhancement of the specific binding of 12.5 nM Q86c-HL488 (conformational sensor nanobody) to NLuc-EGFR, NanoBRET on HEK293 cells” value in assay [3] amounted to 9.2.

The record behind these values is article PMC9726709, “Fluorescently tagged nanobodies and NanoBRET to study ligand-binding and agonist-induced conformational changes of full-length EGFR expressed in living cells” (Frontiers in Immunology, 2022).
